Results on three molecules are retold here after patent US20230009582A1 (MEMO THERAPEUTICS, published 2023).

The target in test [1] is extra-cellular domain of Siglec-9 fused to a C-terminal his-tag (Homo sapiens (Human), UniProt Q9Y336 18-348). The test can be described thus: ELISA, coated his-tagged Siglec-9 extracellular domain, anti-human Fc gamma detection, Abs 450 nm. From the text:
(SEQ ID NO: 44) […] […] […] […] […] […] […]. For detection of bound IgG either polyclonal anti- rabbit IgG antibody (68D4; Biolegend, #406401), or anti-human Fey fragment (humanized 68D4 and mAbA; Jackson Immuno Research laboratories, #109-035-098) were used.

The target in test [2] is T1, Siglec-9 protein (construct not stated; antigen of Examples 3 and 4) (human, UniProt Q9Y336 18-348, limits assumed). Put plainly: ELISA, coated Siglec-9 1 µg/ml, antibody titrated, Abs 450 nm, three-parameter fit, n=3. As to the method:
FIG. 2: Binding curves of monoclonal antibodies (68D4 and 224B1; comparative monoclonal antibodies mAbA and 5C6 & negative control 53C3) towards Siglec-9 as analysed by ELISA. Binding of the monoclonal antibody to Siglec-9, as determined by measurement of the accumulated coloured product at 450 nm after stopping the reaction, is plotted against the concentration of the monoclonal antibody under evaluation.
Antibody binding affinity towards Siglec-9 was measured by a dilution series of the analysed antibodies on a fixed concentration of Siglec-9 protein in ELISA. To this end, Siglec-9 was coated at 1 μg/ml in 50 mM carbonate-bicarbonate buffer pH 9.6 for 15-20 hours at 4° C. Antigen solution was washed away (Tecan Hydrospeed) and plates were blocked with 5% skimmed milk in phosphate-buffered saline (PBS) for 1 hour at room temperature. Plates were washed and antibodies were added at concentrations of 0-420 nM. After incubation at room temperature for 1 hour plates were washed once more. Bound antibodies were detected by addition of horseradish peroxidase (HRP)-coupled secondary antibodies. Rabbit antibodies were detected by polyclonal anti-rabbit IgG antibody (Biolegend), mAbA by anti-human Fab fragment (Sigma Aldrich). After a last washing step, plates were developed by the addition of 3,3′,5,5′-Tetramethylbenzidine (TMB; Sigma Aldrich). Reaction was stopped by addition of sulfuric acid. Absorbance was detected at 450 nm (Tecan, CM […] MONO 200). Data were fitted and EC50 values were determined by three-parameter analysis in GraphPad Prism (GraphPad Software)
For orientation: ELISA stands for enzyme-linked immunosorbent assay.

The target of test [3] is T2, Siglec-15-Fc (R&D systems) (UniProt Q6ZMC9 20-263, limits assumed).
T2 construct: Bought reagent; not shown: Fc part of the bought fusion; not described
T2 sequence (looked up): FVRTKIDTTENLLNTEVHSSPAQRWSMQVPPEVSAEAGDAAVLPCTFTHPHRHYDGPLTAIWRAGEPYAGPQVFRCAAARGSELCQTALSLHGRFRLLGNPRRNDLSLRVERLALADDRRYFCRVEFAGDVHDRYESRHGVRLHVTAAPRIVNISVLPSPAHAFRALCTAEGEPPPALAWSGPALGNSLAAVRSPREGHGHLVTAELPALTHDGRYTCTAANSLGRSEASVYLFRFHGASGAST
Put plainly: ELISA, coated Siglec-15-Fc 1 µg/ml, single antibody concentration, Abs 450 nm, n=3. As to the method: (§1) Specificity towards Siglec-5, Siglec-7, Siglec-8, Siglec-15 and Siglec-9 was assayed in enzyme-linked immunosorbent assay (ELISA) using 96 well half-area ELISA plates (Corning). Siglec-5-Fc (R&D systems), Siglec-7-Fc (in-house production, Siglec-7-Fc protein used had the following amino acid sequence:
(§2) (SEQ ID NO: 59)) […] […] […] […] […] […] […] […] […] […] […] […], Siglec-8-Fc (R&D systems), Siglec-15- Fc (R&D systems) and Siglec-9-Fc (in-house production, SEQ ID NO: 11) were coated at 1 μg/ml in 50 mM carbonate-bicarbonate buffer pH 9.6 for 15-20 hours at 4° C.
(§3) Antigens were washed away (Tecan Hydrospeed) and plates were blocked with 5% skimmed milk in phosphate-buffered saline (PBS). After washing the plates, antibodies were added at 5 μg/ml (33 nM) in 0.5% milk PBS in triplicates. Plates with antibodies were incubated for 1 hour at room temperature. Plates were washed and bound antibodies were detected by horseradish peroxidase (HRP)-labeled polyclonal anti-rabbit IgG antibody (Biolegend) or anti-human Fab fragment for mAbA (Sigma Aldrich). 3,3′,5,5′-Tetramethylbenzidine (TMB; Sigma Aldrich) development was stopped by addition of sulfuric acid and absorbance was detected at 450 nm (Tecan, CM […] MONO 200).

Test [4] concerns the target T3, Siglec-7-Fc (in-house production).
T3 construct: The entry holds the Siglec-7 part and the Fc together; also called Siglec-7-Fc protein
Put plainly: ELISA, coated Siglec-7-Fc 1 µg/ml, single antibody concentration, Abs 450 nm, n=3. As to the method:
as §1, §2, §3

The target of test [5] is T4, Siglec-9-Fc (in-house production).
T4 construct: The entry holds the Siglec-9 part and the Fc together; also called Siglec-9-Fc protein
T4 sequence (chain, as listed by the source limits assumed): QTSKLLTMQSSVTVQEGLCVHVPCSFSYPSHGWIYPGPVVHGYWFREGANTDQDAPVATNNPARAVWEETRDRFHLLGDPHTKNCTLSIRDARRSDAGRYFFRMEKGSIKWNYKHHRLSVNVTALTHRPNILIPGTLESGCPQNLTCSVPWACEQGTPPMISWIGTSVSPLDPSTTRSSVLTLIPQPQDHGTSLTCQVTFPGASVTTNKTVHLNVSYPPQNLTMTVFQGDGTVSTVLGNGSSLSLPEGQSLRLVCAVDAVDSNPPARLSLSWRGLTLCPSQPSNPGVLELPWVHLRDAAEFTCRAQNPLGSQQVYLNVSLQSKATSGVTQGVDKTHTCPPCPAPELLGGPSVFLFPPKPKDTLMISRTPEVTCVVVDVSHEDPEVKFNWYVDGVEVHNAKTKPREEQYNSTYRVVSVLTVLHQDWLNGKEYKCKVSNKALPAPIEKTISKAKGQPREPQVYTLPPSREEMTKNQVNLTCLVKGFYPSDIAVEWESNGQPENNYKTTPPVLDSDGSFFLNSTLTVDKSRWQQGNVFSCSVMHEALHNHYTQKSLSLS
The test can be described thus: blocking assay: Calcein-AM labelled sialic acid-displaying A549 tumour cells binding to plate-captured Siglec-9-Fc, antibody titrated, n=3. The method, then: FIG. 4: Titration of monoclonal antibodies (68D4 and 224B1; comparative monoclonal antibodies mAbA and 5C6 & negative control 53C3) to determine blocking the binding of sialic acid-displaying A549 tumour cells to Siglec-9. Tumour cells were fluorescently-loaded with Calcein-AM in advance to the binding experiment and binding was determined by the released fluorescence upon cell lysis. Fluorescence released in the absence of antibody was set to 100% binding. Data was fitted by three-parameter analysis in GraphPad Prism (GraphPad Software); n=3.
To analyse if anti-Siglec-9 antibodies recognize the ligand-binding domain and block the binding of Siglec-9 to its ligands, sialic acids, we performed a cell-based assay where the binding of sialic-acid expressing A549 tumour cells to Siglec-9-Fc is evaluated in ELISA. ELISA-plates were coated with 3 μg/ml Protein-A (Thermo Fisher Scientific) overnight at 4° C. Plates were blocked with PBS, 1% BSA for 1 h, and incubated with 5 μg/ml Siglec-9-Fc for 1 h at RT. Anti-Siglec-9 antibodies at different concentrations (starting at 8 μg/ml or 53 nM); were mixed 1:1 with Calcein-AM (Thermo Fisher Scientific) labeled A549 tumour cells. The mixture was added to the ELISA plate and incubated for 1 h at 4° C. After washing of the plate, cells that were bound to the plate were lysed with PBS, 1% Triton-X 100 and released fluorescence was measured at an excitation of 485 nm and emission of 535 nm with a Synergy H1 (BioTek). Data were fitted by three-parameter analysis in GraphPad Prism (GraphPad Software).

Test [6] has as its target T5, Siglec-9 expressed on cells (human, UniProt Q9Y336 18-463).
T5 construct: also called monocyte-expressed Siglec-9
The test can be described thus: flow cytometry on human CD14+ monocytes (PBMC), mean RFU of the secondary antibody, three-parameter fit. The method, then:
(§4) Human ex vivo PBMC were stained with fluorescence-labeled (allophycocyanin, APC) antibody to the monocyte marker CD14 (Biolegend) in assay buffer (0.5% (v/v) heat-inactivated fetal bovine serum (Gibco), 2 mM EDTA in phosphate-buffered saline). Subsequently, cells were incubated with antibodies under evaluation at various concentrations (67 nM-0.38 pM). After a washing step cells were incubated with fluorescence-labeled (Brilliant Violet 421™) secondary antibody against human IgG (mAbA) or rabbit IgG (all other monoclonal antibodies under evaluation; both secondary antibodies from Biolegend).
(§5) Binding of Siglec-9-specific antibodies to monocytes (CD14-positive life cells) was analysed with a CytoFLEX flow cytometer (Beckham Coulter's). The mean fluorescence intensity of the secondary antibody staining in the CD14-positive population at each dilution was determined using Flow Jo software (BD). Datapoints generated by this analysis were fitted and EC50 values were determined by three-parameter analysis in GraphPad Prism (GraphPad Software)

Test [7] has as its target T6, Siglec-5-Fc (R&D systems) (UniProt O15389 17-434, limits assumed).
T6 construct: Bought reagent; not shown: Fc part of the bought fusion; not described
T6 sequence (looked up): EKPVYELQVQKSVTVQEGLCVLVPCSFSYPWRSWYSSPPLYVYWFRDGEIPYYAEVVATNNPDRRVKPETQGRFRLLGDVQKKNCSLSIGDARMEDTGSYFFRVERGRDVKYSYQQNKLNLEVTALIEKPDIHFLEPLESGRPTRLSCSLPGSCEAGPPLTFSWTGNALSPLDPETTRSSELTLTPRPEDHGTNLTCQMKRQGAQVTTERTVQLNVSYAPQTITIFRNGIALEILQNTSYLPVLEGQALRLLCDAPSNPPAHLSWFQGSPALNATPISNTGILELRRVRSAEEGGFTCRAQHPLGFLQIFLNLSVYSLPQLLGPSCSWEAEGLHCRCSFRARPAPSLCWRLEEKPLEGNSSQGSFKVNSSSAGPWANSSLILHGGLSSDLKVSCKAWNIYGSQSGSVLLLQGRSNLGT
The test can be described thus: ELISA, coated Siglec-5-Fc 1 µg/ml, single antibody concentration, Abs 450 nm, n=3. The method, then: as §1, §2, §3

Test [8] addresses T7, Siglec-8-Fc (R&D systems) (UniProt Q9NYZ4 17-363, limits assumed).
T7 construct: Bought reagent; not shown: Fc part of the bought fusion; not described
Put plainly: ELISA, coated Siglec-8-Fc 1 µg/ml, single antibody concentration, Abs 450 nm, n=3. The method, then: as §1, §2, §3

For test [9], the target named is T4, Siglec-9-Fc (in-house production). The test can be described thus: ELISA, coated Siglec-9-Fc 1 µg/ml, antibody at 5 µg/ml (33 nM), Abs 450 nm, n=3. The method, then: as §1, §2, §3
Test [10] addresses T1, Siglec-9 protein (construct not stated; …). The test can be described thus: SPR (Carterra LSA), antibody coupled to HC2000M chip, antigen at 20, 100 and 500 nM. As to the method: (§6) KD determination was performed by SPR by individually coating the antibodies to HC2000M chips via sulpho-NHS/EDC coupling chemistry. Chips were afterwards blocked with ethanolamine. Antigen was applied in one of the three different concentrations (20 nM, 100 nM and 500 nM) with a contact time of 240 s, followed by a dissociation phase of 120 s. After each antigen incubation, the bound antigen was removed from the antibodies with 10 mM glycine at pH 2.0. All kinetic parameters (kₒₙ, koff and KD) were determined using a kinetic fitting program (LSA Kinetics, Carterra).

For test [11], the target named is T5, Siglec-9 expressed on cells. The test can be described thus: flow cytometry on human CD14+ monocytes in PBMC. The method, then:
as §4, §5
For orientation: Flow cytometry measures light scatter and fluorescence of single cells or particles in a stream.

In test [12] the target is T1, Siglec-9 protein (construct not stated; …). The test can be described thus: SPR (Carterra LSA), antibody coupled to HC2000M chip, antigen in solution. The method, then:
as §6

T5 sequence (Q9Y336 18-463 limits assumed): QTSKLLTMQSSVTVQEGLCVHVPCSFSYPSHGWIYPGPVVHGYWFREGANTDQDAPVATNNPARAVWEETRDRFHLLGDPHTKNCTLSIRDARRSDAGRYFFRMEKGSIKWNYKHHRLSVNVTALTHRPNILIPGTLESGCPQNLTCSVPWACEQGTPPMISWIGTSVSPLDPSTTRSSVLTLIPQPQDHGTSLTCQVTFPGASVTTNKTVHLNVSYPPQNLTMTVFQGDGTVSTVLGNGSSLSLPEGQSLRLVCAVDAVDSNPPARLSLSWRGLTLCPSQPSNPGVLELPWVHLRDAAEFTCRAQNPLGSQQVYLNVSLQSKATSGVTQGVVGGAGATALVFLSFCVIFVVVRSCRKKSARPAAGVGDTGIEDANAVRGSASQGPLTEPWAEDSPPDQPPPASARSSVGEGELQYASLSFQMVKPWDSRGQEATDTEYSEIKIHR
T1 sequence (Q9Y336 18-348 limits assumed): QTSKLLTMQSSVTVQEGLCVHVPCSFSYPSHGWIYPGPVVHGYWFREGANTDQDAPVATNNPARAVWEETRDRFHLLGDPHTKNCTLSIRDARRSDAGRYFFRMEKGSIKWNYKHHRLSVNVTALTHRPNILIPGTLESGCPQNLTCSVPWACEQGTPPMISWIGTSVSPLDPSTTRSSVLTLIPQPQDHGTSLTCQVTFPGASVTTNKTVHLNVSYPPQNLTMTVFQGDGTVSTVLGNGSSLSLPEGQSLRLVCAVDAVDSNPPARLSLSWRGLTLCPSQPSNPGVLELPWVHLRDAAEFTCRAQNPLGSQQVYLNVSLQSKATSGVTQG
T3 sequence (chain, as listed by the source limits assumed): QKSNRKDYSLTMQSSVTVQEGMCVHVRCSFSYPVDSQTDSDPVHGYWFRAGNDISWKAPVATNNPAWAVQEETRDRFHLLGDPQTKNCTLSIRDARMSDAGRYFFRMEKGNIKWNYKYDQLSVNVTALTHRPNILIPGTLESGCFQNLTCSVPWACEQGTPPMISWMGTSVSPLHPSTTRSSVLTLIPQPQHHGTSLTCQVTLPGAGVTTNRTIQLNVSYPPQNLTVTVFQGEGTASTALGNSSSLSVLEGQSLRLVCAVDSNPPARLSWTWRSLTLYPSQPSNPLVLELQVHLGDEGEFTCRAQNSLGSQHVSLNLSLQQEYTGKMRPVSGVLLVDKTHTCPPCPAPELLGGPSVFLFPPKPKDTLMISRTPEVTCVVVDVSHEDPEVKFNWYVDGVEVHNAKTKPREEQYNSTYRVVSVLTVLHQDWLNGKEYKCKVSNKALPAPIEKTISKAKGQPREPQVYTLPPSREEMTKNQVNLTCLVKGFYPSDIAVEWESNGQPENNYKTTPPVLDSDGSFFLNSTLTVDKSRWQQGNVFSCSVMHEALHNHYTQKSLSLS
T7 sequence (Q9NYZ4 17-363 limits assumed): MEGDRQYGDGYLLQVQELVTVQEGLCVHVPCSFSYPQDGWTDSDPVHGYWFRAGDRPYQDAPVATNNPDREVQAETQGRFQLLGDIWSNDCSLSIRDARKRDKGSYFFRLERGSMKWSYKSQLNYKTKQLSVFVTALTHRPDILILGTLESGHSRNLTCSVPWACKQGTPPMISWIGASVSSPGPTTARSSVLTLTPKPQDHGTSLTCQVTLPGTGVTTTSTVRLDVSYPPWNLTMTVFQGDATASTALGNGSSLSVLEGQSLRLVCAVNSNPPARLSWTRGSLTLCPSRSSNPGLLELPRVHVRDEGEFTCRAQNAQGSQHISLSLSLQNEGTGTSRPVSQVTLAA
extra-cellular domain of Siglec-9 fused to a C-terminal his-tag, sequence (Q9Y336 18-348 limits assumed): as the sequence (Q9Y336 18-348 limits assumed) above

B1: humanized anti-Siglec-9 antibody 68D4 (68D4-hum) (antibody, human IgG1, kappa, V domains shown)
VH: EVQLVESGGGLVQPGGSLRISCAASGIDLSSYDMTWVRQAPGKGLEWVSIIYTGGLTYYADSVKGRFTISRDNSKNTVYLQMNSLRAEDTAVYYCAREVGDNNNFWGQGTLVTVSS
VL: DIVMTQSPSSVSASVGDRVTITCRASESVSSGLAWYQQKPGKAPKLLVYDDTDLASGVPSRFSGSGSGTEFTLTISSLQPDDFATFYCQYTDYGRTYVGTFGGGTKVEIKR
notes: Human IgG1/kappa, expressed in HEK293F cells; also called humanized 68D4
A word on the EC50 (read off the curve): it is the concentration at which the effect is half-maximal. A high value points to a less potent agent. In the case of B1, in test [1], the “EC50 (read off the curve)” value is approximately 60 pM.

B2: comparative monoclonal antibody 5C6 (WO 2017/075432), mouse-rabbit chimera (antibody, V domains shown)
VH: EVQLQQSGPELVKPGASVRISCKASGYTFTDYNIHWVKQSQGKSLEWIGYIYPYNGDTGYNQKFQNKATLTVDNSSSTAYMELRSLTSEDSAVYYCANGNYLYYYAMDYWGQGTSVTVSS
VL: DVVMTQTPLSLPVSLGDQVSISCSSSQSLVHSNGNTYLHWYLQKSGQSPKLLIYKVSNRFSGVPDRFRGSGSGTDFTLKISRVEAEDLGVYFCSQNTHVPLTFGAGTKLELKG
Broadly, the EC50 is the concentration needed to bring the measured effect to its halfway point. In the case of B2, the values for the EC50 in test [2] and in [6] were 340 pM and 4180 pM, respectively. Further, the binding result in test [3] is “no binding (tested: 5 µg/ml)”; in [4], “no binding (tested: 5 µg/ml)”; in test [5], “binds”; in [7] it was “no binding (tested: 5 µg/ml)”; in [8], “no binding (tested: 5 µg/ml)”.

B3: monoclonal antibody 68D4 (rabbit) (antibody, V domains shown)
VH: QSLEESGGRLVKPDETLTITCTVSGIDLSSYDMTWVRQAPGKGLEWIGIIYTGGLTYYASWAKGRFTISKTSTTVDLKITSPTTEDTATYFCAREVGDNNNFWGPGTLVTVSS
VL: DVVMTQTPASVSEPVGGTVTIKCQASESVDSGLAWYHQKPGQPPKLLIYDDTDLASGVPSRFKGSRSGTAHTLTISDLECADAATYYCQYTDYGRTYVGTFGGGTEVVIKG
notes: also called rb 68D4; rabbit 68D4
What is called Kd is the free concentration of one partner at which half of the binding sites on the other are occupied at equilibrium, for simple one-to-one binding. Higher therefore signals lower affinity. Broadly, the koff is the first-order rate constant of dissociation. A low value points to slow dissociation. The kon is a measure of how fast the partners come together. A lower kon goes with slow association. For the molecule B3, the binding result was “binds” in [9]; “no binding (tested: 5 µg/ml)” in [3]; “no binding (tested: 5 µg/ml)” in test [4]; “no binding (tested: 5 µg/ml)” in [7]; “no binding (tested: 5 µg/ml)” in test [8]. Further, the Kd in test [10] is 150 pM. The dissociation rate constant (koff) in test [10] is 9.6e-05 s⁻¹. The kon in [10] was found to be 640000 M⁻¹ s⁻¹. Further, the EC50 in test [2] worked out at 50 pM; in [6], 190 pM. Moreover, the “fold stronger avidity than mAbA” value in [11] was approximately 3 fold. In addition, in test [11], the “fold stronger binding than 5C6” value is approximately 22 fold. In [12], the “fold better dissociation constant than mAbA” value is approximately 16.7 fold.
